Test [1] deals with T1, recombinant human MASP1 active protease (amino acids 297-699, C-terminal His Tag) (human, UniProt P48740 297-699).
T1 sequence: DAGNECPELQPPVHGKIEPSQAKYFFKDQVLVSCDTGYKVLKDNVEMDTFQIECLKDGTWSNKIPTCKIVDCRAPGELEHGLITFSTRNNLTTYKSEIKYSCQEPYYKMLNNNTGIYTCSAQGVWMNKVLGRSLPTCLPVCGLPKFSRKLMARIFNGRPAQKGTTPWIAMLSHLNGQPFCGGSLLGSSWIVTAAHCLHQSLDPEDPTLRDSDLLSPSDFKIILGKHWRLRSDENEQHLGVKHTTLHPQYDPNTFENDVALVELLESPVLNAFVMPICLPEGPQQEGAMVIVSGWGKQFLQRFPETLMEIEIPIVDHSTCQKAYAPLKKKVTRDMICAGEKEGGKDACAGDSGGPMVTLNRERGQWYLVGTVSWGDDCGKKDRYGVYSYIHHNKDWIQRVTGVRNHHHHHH
Description: cell-based or functional assay.

The target of test [2] is recombinant human MASP2 active protease (amino acids 297-686, C-terminal His Tag) (human, UniProt O00187 297-686). In words: cell-based or functional assay.

Data on 13 molecules can be found in patent US20210246166A1 (Bayer, published 2021).

Bridge positions count the residues as written; N and C are the ends. Square brackets hold non-standard residues; d marks the D form. Ends that are not written are not given here. Oic = O=C(O)[C@@H]1C[C@@H]2CCCC[C@@H]2N1; tBuAla = CC(C)(C)C[C@H](N)C(=O)O; Abu(4-CN) = N#CCC[C@H](N)C(=O)O; Aad = N[C@@H](CCCC(=O)O)C(=O)O; Pen = CC(C)(S)[C@H](N)C(=O)O; Phg = N[C@H](C(=O)O)c1ccccc1; Tranexamic = tranexamic acid; NMeC = CN[C@@H](CS)C(=O)O; PEG2 = NCCOCCOCCC(=O)O; Sar = CNCC(=O)O

Chain of recombinant human MASP2 active protease (amino acids 297-686, C-terminal His Tag) (O00187 other isoform, or with tags, fused parts or gaps limits assumed): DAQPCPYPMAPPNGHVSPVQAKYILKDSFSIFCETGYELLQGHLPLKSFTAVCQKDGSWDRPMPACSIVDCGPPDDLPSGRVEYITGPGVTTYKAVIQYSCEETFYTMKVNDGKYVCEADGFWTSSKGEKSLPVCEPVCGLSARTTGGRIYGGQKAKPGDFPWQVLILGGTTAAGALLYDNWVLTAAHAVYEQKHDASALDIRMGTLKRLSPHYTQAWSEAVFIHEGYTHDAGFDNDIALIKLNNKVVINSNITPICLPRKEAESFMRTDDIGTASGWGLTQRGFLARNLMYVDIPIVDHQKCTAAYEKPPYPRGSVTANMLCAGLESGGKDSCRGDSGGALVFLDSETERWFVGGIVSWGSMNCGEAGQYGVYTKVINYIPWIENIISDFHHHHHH

B1: Example 325: ((N-Me)G)-IC+SRSLPPIC+(Phg)-PD-OH (peptide)
peptide: [Sar]ICSRSLPPIC[Phg]PD-OH
modifications: disulfide 3-11; N-terminus assumed
SMILES: CC[C@H](C)[C@H](NC(=O)CNC)C(=O)N[C@H]1CSSC[C@@H](C(=O)N[C@H](C(=O)N2CCC[C@H]2C(=O)N[C@@H](CC(=O)O)C(=O)O)c2ccccc2)NC(=O)[C@H]([C@@H](C)CC)NC(=O)[C@@H]2CCCN2C(=O)[C@@H]2CCCN2C(=O)[C@H](CC(C)C)NC(=O)[C@H](CO)NC(=O)[C@H](CCCNC(=N)N)NC(=O)[C@H](CO)NC1=O
For B1, the “human MASP1 IC50” value in test [1] worked out at 23 nM. In test [2], the “human MASP2 IC50” value was determined as 450 nM.

In the case of [Tranexamic]ICSRS[tBuAla]PPI[NMeC]IPD-NH2 (disulfide 3-11) [Example 319: (Tranexamic)-IC+SRS-((tBu)A)-PPI-((N-Me)C)+IPD-NH2], the “human MASP1 IC50” value in test [1] stood at 22 nM. Moreover, the “human MASP2 IC50” value in test [2] is 18 nM.

B2: Example 322: ((tBu)A)-GIC+SRSLP-(Oic)-I-(Pen)+IP-NH2 (peptide)
peptide: [tBuAla]GICSRSLP[Oic]I[Pen]IP-NH2
modifications: disulfide 4-12; N-terminus assumed
SMILES: CC[C@H](C)[C@H](NC(=O)CNC(=O)[C@@H](N)CC(C)(C)C)C(=O)N[C@H]1CSSC(C)(C)[C@@H](C(=O)N[C@H](C(=O)N2CCC[C@H]2C(N)=O)[C@@H](C)CC)NC(=O)[C@H]([C@@H](C)CC)NC(=O)[C@@H]2C[C@@H]3CCCC[C@@H]3N2C(=O)[C@@H]2CCCN2C(=O)[C@H](CC(C)C)NC(=O)[C@H](CO)NC(=O)[C@H](CCCNC(=N)N)NC(=O)[C@H](CO)NC1=O
On to B2, for which the “human MASP1 IC50” value in test [1] turned out to be 22 nM. Moreover, in test [2], the “human MASP2 IC50” value stood at 150 nM.

B3: Example 314: AIC+SRS-(AAD)-PP-I-((N-Me)C)+IPD-NH2 (peptide)
peptide: AICSRS[Aad]PPI[NMeC]IPD-NH2
modifications: disulfide 3-11; N-terminus assumed
SMILES: CC[C@H](C)[C@H](NC(=O)[C@H](C)N)C(=O)N[C@H]1CSSC[C@@H](C(=O)N[C@H](C(=O)N2CCC[C@H]2C(=O)N[C@@H](CC(=O)O)C(N)=O)[C@@H](C)CC)N(C)C(=O)[C@H]([C@@H](C)CC)NC(=O)[C@@H]2CCCN2C(=O)[C@@H]2CCCN2C(=O)[C@H](CCCC(=O)O)NC(=O)[C@H](CO)NC(=O)[C@H](CCCNC(=N)N)NC(=O)[C@H](CO)NC1=O
On to B3, for which the “human MASP1 IC50” value in test [1] worked out at 21 nM. The “human MASP2 IC50” value in test [2] came to 260 nM.

B4: Example 316: IC+SRS-((tBu)A)-PPI-(Pen)+IP-NH2 (peptide)
peptide: ICSRS[tBuAla]PPI[Pen]IP-NH2
modifications: disulfide 2-10; N-terminus assumed
SMILES: CC[C@H](C)[C@H](N)C(=O)N[C@H]1CSSC(C)(C)[C@@H](C(=O)N[C@H](C(=O)N2CCC[C@H]2C(N)=O)[C@@H](C)CC)NC(=O)[C@H]([C@@H](C)CC)NC(=O)[C@@H]2CCCN2C(=O)[C@@H]2CCCN2C(=O)[C@H](CC(C)(C)C)NC(=O)[C@H](CO)NC(=O)[C@H](CCCNC(=N)N)NC(=O)[C@H](CO)NC1=O
For the molecule B4, the “human MASP1 IC50” value in test [1] was 21 nM. Further, in test [2], the “human MASP2 IC50” value was 660 nM.

B5: Example 323: GIC+SRSLP-(Oic)-IC+IPD-OH (peptide)
peptide: GICSRSLP[Oic]ICIPD-OH
modifications: disulfide 3-11; N-terminus assumed
SMILES: CC[C@H](C)[C@H](NC(=O)CN)C(=O)N[C@H]1CSSC[C@@H](C(=O)N[C@H](C(=O)N2CCC[C@H]2C(=O)N[C@@H](CC(=O)O)C(=O)O)[C@@H](C)CC)NC(=O)[C@H]([C@@H](C)CC)NC(=O)[C@@H]2C[C@@H]3CCCC[C@@H]3N2C(=O)[C@@H]2CCCN2C(=O)[C@H](CC(C)C)NC(=O)[C@H](CO)NC(=O)[C@H](CCCNC(=N)N)NC(=O)[C@H](CO)NC1=O
Take B5: in test [1], the “human MASP1 IC50” value came to 6.96 nM. In addition, in test [2], the “human MASP2 IC50” value was found to be 560 nM.

B6: Example 320: (PEG1(10 atoms))-AIC+SRS-((tBu)A)-PPI-(Pen)+IPD-NH2 (peptide)
peptide: [PEG2]AICSRS[tBuAla]PPI[Pen]IPD-NH2
modifications: disulfide 4-12; N-terminus assumed
SMILES: CC[C@H](C)[C@H](NC(=O)[C@H](C)NC(=O)CCOCCOCCN)C(=O)N[C@H]1CSSC(C)(C)[C@@H](C(=O)N[C@H](C(=O)N2CCC[C@H]2C(=O)N[C@@H](CC(=O)O)C(N)=O)[C@@H](C)CC)NC(=O)[C@H]([C@@H](C)CC)NC(=O)[C@@H]2CCCN2C(=O)[C@@H]2CCCN2C(=O)[C@H](CC(C)(C)C)NC(=O)[C@H](CO)NC(=O)[C@H](CCCNC(=N)N)NC(=O)[C@H](CO)NC1=O
As to B6, the “human MASP1 IC50” value in test [1] was found to be 22 nM. Besides, the “human MASP2 IC50” value in test [2] came to 190 nM.

B7: Example 329: ((N-Me)G)-IC+SRSLPPIC+I-((N-Me)G)-D-OH (peptide)
peptide: [Sar]ICSRSLPPICI[Sar]D-OH
modifications: disulfide 3-11; N-terminus assumed
SMILES: CC[C@H](C)[C@H](NC(=O)CNC)C(=O)N[C@H]1CSSC[C@@H](C(=O)N[C@H](C(=O)N(C)CC(=O)N[C@@H](CC(=O)O)C(=O)O)[C@@H](C)CC)NC(=O)[C@H]([C@@H](C)CC)NC(=O)[C@@H]2CCCN2C(=O)[C@@H]2CCCN2C(=O)[C@H](CC(C)C)NC(=O)[C@H](CO)NC(=O)[C@H](CCCNC(=N)N)NC(=O)[C@H](CO)NC1=O
In the case of B7, the “human MASP1 IC50” value in test [1] stood at 24 nM. In test [2], the “human MASP2 IC50” value was determined as 260 nM.

For the molecule [Sar]ICSRSLP[(1R,3S,5R)‑2‑Azabicyclo(3.1.0)hexane‑3‑carboxylic acid]ICIPD-OH (disulfide 3-11) [Example 324: ((N-Me)G)-IC+SRSLP-((1R,3S,5R)-2-Azabicyclo[3.1.0]hexane-3-carboxylic acid)-IC+IPD-OH], in test [1], the “human MASP1 IC50” value amounted to 23 nM. Also, the “human MASP2 IC50” value in test [2] turned out to be 72 nM.

B8: Example 321: ((N-Me)G)-IC+SRS-(Cnba)-PPI-(Pen)+IPD-NH2 (peptide)
peptide: [Sar]ICSRS[Abu(4-CN)]PPI[Pen]IPD-NH2
modifications: disulfide 3-11; N-terminus assumed
SMILES: CC[C@H](C)[C@H](NC(=O)CNC)C(=O)N[C@H]1CSSC(C)(C)[C@@H](C(=O)N[C@H](C(=O)N2CCC[C@H]2C(=O)N[C@@H](CC(=O)O)C(N)=O)[C@@H](C)CC)NC(=O)[C@H]([C@@H](C)CC)NC(=O)[C@@H]2CCCN2C(=O)[C@@H]2CCCN2C(=O)[C@H](CCC#N)NC(=O)[C@H](CO)NC(=O)[C@H](CCCNC(=N)N)NC(=O)[C@H](CO)NC1=O
Consider B8, for which the “human MASP1 IC50” value in test [1] was found to be 22 nM. The “human MASP2 IC50” value in test [2] amounted to 1800 nM.

B9: Example 317: ((N-Me)G)-IC+SRSLPPIC+ID-NH2 (peptide)
peptide: [Sar]ICSRSLPPICID-NH2
modifications: disulfide 3-11; N-terminus assumed
SMILES: CC[C@H](C)[C@H](NC(=O)CNC)C(=O)N[C@H]1CSSC[C@@H](C(=O)N[C@H](C(=O)N[C@@H](CC(=O)O)C(N)=O)[C@@H](C)CC)NC(=O)[C@H]([C@@H](C)CC)NC(=O)[C@@H]2CCCN2C(=O)[C@@H]2CCCN2C(=O)[C@H](CC(C)C)NC(=O)[C@H](CO)NC(=O)[C@H](CCCNC(=N)N)NC(=O)[C@H](CO)NC1=O
On to B9, for which, in test [1], the “human MASP1 IC50” value was 22 nM. In addition, the “human MASP2 IC50” value in test [2] is 210 nM.

For the molecule AICSRSLP[3,3‑dimethyl‑1,3‑azasilolidine‑5‑carboxylic acid]ICIPD-NH2 (disulfide 3-11) [Example 326: AIC+SRSLP-(3,3-dimethyl-1,3-azasilolidine-5-carboxylic acid)-IC+IPD-NH2], the “human MASP1 IC50” value in test [1] amounted to 23 nM. Further, the “human MASP2 IC50” value in test [2] amounted to 710 nM.

As to [Sar]ICSRSLPPICIPD-OH (disulfide 3-11; also: HCl salt) [Example 318: ((N-Me)G)-IC+SRSLPPIC+IPD-OH (HCl- Salt)], the “human MASP1 IC50” value in test [1] stood at 22 nM. Moreover, the “human MASP2 IC50” value in test [2] was 610 nM.
